Consider two molecules from PMC3905860, “DHX9 helicase is involved in preventing genomic instability induced by alternatively structured DNA in human cells”.

In the series the target is DHX9 helicase (human, UniProt Q08211 1-1270). In words: EMSA; 5 mM AMP-PNP, 10 mM Mg2+; 100 nM DHX9, 100 nM DNA; EMSA: 20 mM Tris-HCl pH 7.5, 50 mM NaCl, 1 mM DTT, 1 mM EDTA, 10 mM MgCl2, 5% glycerol, 5 mM AMP-PNP, 30 C 30 min; MBN assay: 10 mM Tris-HCl pH 7.5, 5 mM DTT, 100 ug/ml BSA, 5 mM MgCl2, 5 mM ATP or AMP-PNP, 10% glycerol, 35 C. The settings on record: protein: recombinant, tags: His, label: 5'-32P. (In general: Mobility shift assays separate free from complexed probe on a gel.)
Chain of DHX9 helicase (Q08211 whole entry): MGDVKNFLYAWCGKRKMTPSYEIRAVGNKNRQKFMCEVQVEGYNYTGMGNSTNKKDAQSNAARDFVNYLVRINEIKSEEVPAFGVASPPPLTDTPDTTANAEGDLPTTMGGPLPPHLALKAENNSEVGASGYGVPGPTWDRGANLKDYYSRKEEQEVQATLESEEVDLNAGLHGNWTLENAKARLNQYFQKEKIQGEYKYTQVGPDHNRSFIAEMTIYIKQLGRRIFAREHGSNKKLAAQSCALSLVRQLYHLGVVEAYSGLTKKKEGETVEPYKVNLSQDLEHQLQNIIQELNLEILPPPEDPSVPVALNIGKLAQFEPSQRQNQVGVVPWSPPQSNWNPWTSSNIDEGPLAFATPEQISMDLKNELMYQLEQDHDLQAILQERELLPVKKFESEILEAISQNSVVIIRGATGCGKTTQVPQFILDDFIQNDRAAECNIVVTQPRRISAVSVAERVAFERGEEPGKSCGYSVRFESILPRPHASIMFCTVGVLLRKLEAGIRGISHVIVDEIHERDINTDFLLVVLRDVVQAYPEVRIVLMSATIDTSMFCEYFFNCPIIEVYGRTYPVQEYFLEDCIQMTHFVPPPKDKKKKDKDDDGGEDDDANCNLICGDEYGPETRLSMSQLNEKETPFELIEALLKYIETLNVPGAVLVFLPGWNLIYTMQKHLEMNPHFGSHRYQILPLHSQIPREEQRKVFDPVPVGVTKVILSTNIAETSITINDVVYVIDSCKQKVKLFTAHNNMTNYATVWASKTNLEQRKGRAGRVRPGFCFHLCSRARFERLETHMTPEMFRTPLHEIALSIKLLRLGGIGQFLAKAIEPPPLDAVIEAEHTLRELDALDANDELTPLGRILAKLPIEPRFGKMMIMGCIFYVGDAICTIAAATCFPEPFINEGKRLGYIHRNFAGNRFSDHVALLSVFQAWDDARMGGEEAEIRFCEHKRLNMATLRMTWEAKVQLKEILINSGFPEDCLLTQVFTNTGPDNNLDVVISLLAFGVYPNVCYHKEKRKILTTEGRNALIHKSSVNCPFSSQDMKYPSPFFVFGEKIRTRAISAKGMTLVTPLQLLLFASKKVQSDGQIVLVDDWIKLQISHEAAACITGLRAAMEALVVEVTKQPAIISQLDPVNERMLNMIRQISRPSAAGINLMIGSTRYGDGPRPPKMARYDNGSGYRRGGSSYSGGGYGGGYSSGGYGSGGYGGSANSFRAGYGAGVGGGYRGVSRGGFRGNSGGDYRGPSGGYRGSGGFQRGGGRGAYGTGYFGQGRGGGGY

In the case of CCCCTCCCTTTTTGGGAGGGGCGCTTATGGGGAGGGCAGTCGAGCG (structured_DNA) [c-MYC-related intramolecular triplex with 3' overhang (H-DNA)], under “intramolecular triplex with 3' overhang, single strand, pre-annealed with 10 mM Mg2+”, the binding result is listed as “binds”.

B1: duplex DNA control (dsDNA)
DNA 1: CTTGAGCTTGAGCTCAAGCTCAAG
DNA 2: CTTGAGCTTGAGCTCAAGCTCAAG
As for B1, where the note is “self-complementary, 2 copies of one strand, blunt, hairpin may also form”, the binding result is on record as “no binding”.
